Measured values as given in patent US20190375846A1 (ULTRAHUMAN ONE, published 2019).
One block for each binder: values may come before it.

Legend:
[1] = target: T1, cynomolgus monkey GITR-Fc (cynomolgus monkey (Macaca fascicularis)); experiment: SPR (Biacore), Fab over GITR-Fc captured on anti-human Fc
T1 construct: also called cyno GITR-Fc; cGITR-Fc
Protocol: (§1) For affinity estimation, anti-human IgG Fc antibody was amine coupled at pH 5 onto three flow cells (Fc 1 to Fc 3) of a Biacore CM5 chip. The level of anti-Fc antibody immobilised onto the chip was approximately 550 RU. Human and cyno GITR-Fc and irrelevant receptor-Fc proteins were then captured onto the anti-Fc antibodies (by injecting over the antibody surface until nearly/completely saturated) in order that 80-100 RU were captured. Fab monomers were then injected over the Fc proteins captured on the chip at 37° C. a flow rate of 50 μl/min for 120 seconds, followed by Biacore running buffer (HBS-EP) being flowed over the chip for 240 seconds at 50 μl/min. The chip was regenerated between cycles using 2×15 second injections of 10 mM Glycine pH 2. The concentrations of Fab samples tested were 400, 200, 100, 50, 25, 12.5, and 6.25 nM. A Biacore running buffer control (0 nM) was also included as a control.
(§2) Monomeric Fab fragments were generated and flowed in the mobile phase on human and cyno GITR-Fc coated biosensor chips, to derive 1:1 binding values.

[2] = target: T2, human GITR-Fc (human, UniProt Q9Y5U5 26-161); experiment: SPR (Biacore), Fab over GITR-Fc captured on anti-human Fc, 37 C, 1:1 model
T2 construct: Recombinant GITR-Fc; also called hGITR-Fc; hGITR; not shown: Fc part
T2 sequence (looked up): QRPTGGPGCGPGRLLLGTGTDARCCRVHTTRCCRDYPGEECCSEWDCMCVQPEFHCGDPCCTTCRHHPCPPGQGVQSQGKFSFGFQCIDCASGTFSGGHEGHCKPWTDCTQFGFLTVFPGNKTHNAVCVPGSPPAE
Protocol: as §1, §2

[3] = target: T1, cynomolgus monkey GITR-Fc; experiment: as above
Protocol: as §1, §2

[4] = target: T2, human GITR-Fc; experiment: direct titration ELISA on coated human GITR-Fc, IgG1 0.001-1 µg/ml, OD 450 nm
Protocol: To coat Greiner Bio-One High bind ELISA plates, target proteins were diluted to 1 μg/ml in carbonate buffer and added at 100 μl per well, at 4° C., o/n. Coated plates were washed 3× with PBS pH7.4, blocked with 1% BSA in PBS (380 μl/well) for 1 hr at RT, then washed 3× with PBS-Tween 20 (PBST). GITR antibodies (100 μl/well; diluted in PBST) were then added and then incubated 1 hr at RT. Plates were then washed 3× with PBST and goat anti-human kappa chain-HRP added (100 μl/well) at RT, for 1 hr. Plates were then washed 3× with PBST and twice with PBS before the addition of 100 μl TMB per well. Reactions were stopped by adding 100 μl 2M H₂SO₄/well and OD was read on a plate reader at 450 nm. IgG binding analysis via ELISA on negatively charged biomolecular surfaces were performed as previously described (see Mouquet et al., 2010, Nature 467: 591-595).
The 17 purified IgGs described above were then tested for binding to human and cyno GITR-Fc in direct titration ELISA format.

[5] = target: T2, human GITR-Fc; experiment: HTRF competition: unlabelled IgG1 titrated 0.003-100 µg/ml against terbium-labelled VH1/VL1 IgG on biotinylated human GITR-Fc with SA-XL665, 665/615 ratio
Protocol: A competition HTRF assay was established to examine epitope competition against VH1/VL1 IgG by grafted and library-derived clones. The purified VH1/VL1 IgG was labelled with terbium using a labelling kit (CisBio) per the manufacturers instructions. The final reaction mix contained biotinylated human GITR-Fc, SA-XL665 (CisBio), terbium-labelled parental […], and competitor IgG of interest, prepared as described above, in a total reaction volume of 20 μl in 1× assay buffer [50 mM sodium phosphate, pH 7.5, 400 mM potassium fluoride, and 0.1% BSA (w/v)]. Reagents were added sequentially on a MiniTrak Liquid Handling Platform (Perkin-Elmer) into 384-well low-volume black plates (Nunc). Reactions proceeded for 1 h at room temperature, and plates were subsequently read on a plate reader with excitation at 340 nm and two emission readings at 615 nm (measuring input donor fluorescence from VH1-VL1-cryptate) and 665 nm (measuring output acceptor fluorescence from SAXL665). Readings were expressed as 665 nm/615 nm ratios.
To examine the competition of the library-derived clones with the unaltered, closest-germline grafted CDRs of VH1/VL1 IgG, an Homogeneous Time Resolved Fluorescence (HTRF) assay was established. This assay incorporated terbium-labelled VH1/VL1 IgG, Biotinylated hGITR-Fc and streptavidin-XL665, in solution-phase binding. […]

[6] = target: T3, cynomolgus monkey GITR at the cell surface (cynomolgus monkey); experiment: flow cytometry, cyno GITR-transfected murine blastoma cells, 10,000-13.7 ng/ml
T3 construct: whole, on cells; also called cyno GITR+ cells
Protocol: (§3) Concentration-dependent binding to GITR at the cell surface was analysed using flow cytometry.

[7] = target: T4, human GITR at the cell surface (human, UniProt Q9Y5U5 26-241); experiment: flow cytometry on CHO-K1 human GITR+ cells; competitor: soluble human GITRL
T4 construct: whole, on cells; The cell type is named in the assay field of each row; also called human GITR+ cells; CHO-K1 human GITR+ cells
T4 sequence (looked up): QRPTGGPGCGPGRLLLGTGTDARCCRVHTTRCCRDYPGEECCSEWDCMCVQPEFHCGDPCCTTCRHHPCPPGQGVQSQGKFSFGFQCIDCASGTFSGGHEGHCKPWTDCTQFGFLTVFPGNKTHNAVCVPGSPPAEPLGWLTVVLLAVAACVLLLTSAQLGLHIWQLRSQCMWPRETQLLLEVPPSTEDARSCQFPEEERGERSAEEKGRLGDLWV

[8] = target: T4, human GITR at the cell surface; experiment: cell-based or functional assay
[9] = target: T3, cynomolgus monkey GITR at the cell …; experiment: cell-based or functional assay
[10] = target: T4, human GITR at the cell surface; experiment: flow cytometry, human GITR-transfected murine blastoma cells, 10,000-13.7 ng/ml
Protocol: as §3

fold improved affinity against VH1/VL1 Fab [1]: ~4 fold
Kd [2]: 120 nM
koff [2]: 0.011 s⁻¹
kon [2]: 92000 M⁻¹ s⁻¹
Kd [3]: 57 nM
koff [3]: 0.0021 s⁻¹
kon [3]: 37000 M⁻¹ s⁻¹
B1: D-A6 Fab (Fab, V domains shown)
VH: EVQLVESGGGLVQPGGSLRLSCAASGFSLSTSGYGVGWVRQAPGKGLEWLAHIWWDDDKYYVDSVKGRFTISRDNAKNSLYLQMNSLRAEDTAVYYCARTRQYFPFAYWGQGTLVTVSS
VL: EIVLTQSPATLSLSPGERATLSCRASQSVGSNLAWYQQKPGQAPRLLIYSASYRYTGIPARFSGSGSGTDFTLTISSLEPEDFAVYYCQQYSTDPLTFGGGTKVEIK
notes: v-domains built as m25; also called D-A6 Fab fragment

binding result [4]: binds
B2: MH IgG1 (Maximally Humanized designer clone) (antibody, V domains shown)
VH: EVQLVESGGGLVQPGGSLRLSCAASGFSLSTSGYGMSWVRQAPGKGLEWVAHIWWDDEKYYVDSVKGRFTISRDNAKNSLYLQMNSLRAEDTAVYYCARTRQYFPFAYWGQGTLVTVSS
VL: EIVLTQSPATLSLSPGERATLSCRASQSVGSNLAWYQQKPGQAPRLLIYSASYRATGIPARFSGSGSGTDFTLTISSLEPEDFAVYYCQQYSTDPLTFGGGTKVEIK
notes: Human IgG1, designer clone; also called Clone MH

IC50 (read off the curve) [5]: ~1 µg/mL
concentration at maximum MFI [6]: ~1110 ng/mL
fold reduction of binding signal in the presence of 10 µg/ml soluble GITRL [7]: > 10 fold
EC50 of FcγRIIIa activation, Promega ADCC reporter assay, CHO-K1 target cells expressing human GITR [8]: 35.6 nM
EC50 of FcγRIIIa activation, Promega ADCC reporter assay, CHO-K1 target cells expressing cyno GITR [9]: 160 nM
concentration at maximum MFI [10]: ~1110 ng/mL
B3: VH1/VL1 IgG1 (antibody, V domains shown)
VH: QVTLRESGPALVKPTQTLTLTCTFSGFSLSTSGMGVGWIRQPPGKALEWLAHIWWDDDKYYNPSLKSRLTISKDTSKNQVVLTMTNMDPVDTATYYCARTRRYFPFAYWGQGTLVTVSS
VL: EIVMTQSPATLSVSPGERATLSCKASQNVGTNVAWYQQKPGQAPRLLIYSASYRYSGIPARFSGSGSGTEFTLTISSLQSEDFAVYYCQQYNTDPLTFGGGTKVEIK
notes: Full-length human IgG1; also called hVH1/VL1; G-VH1/VL1
